Laboratory results reported in EP2353607A1.

How the values were obtained:
[1] = target: integrin α5β1 on cultured endothelial cells (species of the cells not stated); assay: cell-based or functional assay
[2] = target: integrin αvβ3 on cultured endothelial cells (species of the cells not stated); assay: cell-based or functional assay

- endothelial cell migration (scratch-wound closure) in the presence of 15µg/ml RDD protein, as compared to untreated control culture [1]: 54.5%
- endothelial cell migration (scratch-wound closure) in the presence of 15µg/ml RDD protein, as compared to untreated control culture [2]: 54.5%
Substance: recombinant disintegrin domain (RDD) of metargidin (human ADAM-15)
